Source: the supplement of paper PMC7877785
± gives the uncertainty stated by the source.

Assay: self-splicing fitness, log relative to wild type (ln ratio); higher = more splicing; Tetrahymena group I intron in knt gene, E. coli kanamycin selection, DiMSum; sequences stand for … in CUCUCU…GGAGGGAAAAGUUAUCAGGCAUGCACCUGGUAGCUAGUCUUUAAACCAAUAGAUUGCAUCGGUUUAAAAGGCAAGACCGUCAAAUUGCGGGAAAGGGGUCAACAGCCGUUCAGUACCAAGUCUCAGGGGAAACUUUGAGAUGGCCUUGCAAAGGGUAUGGUAAUAAGCUGACGGACAUGGUCCUAACCACGCAGCCAAGUCCUAAGUCAACAGAUCUUCUGUUGAUAUGGAUGCAGUUCACAGACUAAAUGUCGGUCGGGGAAGAUGUAUUCUUCUCAUAAGAUAUAGUCGGACCUCUCCUUAAUGGGAGCUAGCGGAUGAAGUGAUGCAACACUGGAGCCGCUGGGAACUAAUUUGUAUGCGAAAGUAUAUUGAUUAGUUUUGGAGUACUCGUGGUCG
Summary of the method: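 The eight P1ex-region nucleotides of an intron in the knt kanamycin-resistance gene on pET-22b(+) were all randomised and the library put into E. coli BL21(DE3). Six replicate transformations were grown overnight at 37°C or 30°C on LB agar with or without 25 μg/mL kanamycin, together with 100 μg/mL carbenicillin, 50 μM IPTG and 0.2% rhamnose. Colonies were pooled and amplicon-sequenced on an Illumina HiSeq 2500. Fitness from DiMSum is the error-weighted combination of wild-type-normalised replicate fold changes, kanamycin over none.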

Sequence | self-splicing fitness (ln) (30 °C) | self-splicing fitness (ln) (37 °C)
GUCGAGCAAUAUUACGCAUC | -2.31 ± 0.26 | -0.574 ± 0.22
CGCCAGCAAUAUUACGGCCA | -0.294 ± 0.11 | 0.0865 ± 0.13
UACAAGCAAUAUUACGUAUU | -4.29 ± 0.19 | -2.32 ± 0.13
GACAAGCAAUAUUACGUGCC | -1.69 ± 0.14 | -1.21 ± 0.17
CACGAGCAAUAUUACGCAAG | -2.4 ± 0.19 | -0.867 ± 0.15
CGACAGCAAUAUUACGCAAA | -3.94 ± 0.31 | -3.08 ± 0.22
GUAGAGCAAUAUUACGUAUC | -2.44 ± 0.12 | -1.58 ± 0.13
CACCAGCAAUAUUACGUCAC | -2.9 ± 0.15 | -2.9 ± 0.3
UUUCAGCAAUAUUACGCAAC | -3.51 ± 0.28 | -1.8 ± 0.22
AAGGAGCAAUAUUACGGAAC | – | -2.52 ± 0.36
AAUAAGCAAUAUUACGAUUU | -0.134 ± 0.064 | -0.252 ± 0.074
GGCGAGCAAUAUUACGUGCC | – | -2.25 ± 0.45
GCAAAGCAAUAUUACGUGAA | -0.989 ± 0.099 | -0.0746 ± 0.12
AAAUAGCAAUAUUACGCCUU | -0.206 ± 0.073 | 0.557 ± 0.1
AUCAAGCAAUAUUACGGUAU | -1.93 ± 0.063 | -0.833 ± 0.077
AACGAGCAAUAUUACGCAAA | – | -1.9 ± 0.35
CUACAGCAAUAUUACGGAAU | -4.13 ± 0.32 | -3.3 ± 0.26
UAUUAGCAAUAUUACGCCAA | -1.65 ± 0.2 | -1.68 ± 0.23
AAUGAGCAAUAUUACGGUCG | -2.26 ± 0.14 | -1.62 ± 0.2
ACGGAGCAAUAUUACGACUA | -2.73 ± 0.35 | -2.09 ± 0.24

Sequence | self-splicing fitness (ln) (30 °C) | self-splicing fitness (ln) (37 °C)
AGGAAGCAAUAUUACGAGCG | -1.96 ± 0.24 | -1.08 ± 0.22
CAUUAGCAAUAUUACGCACA | -1.01 ± 0.16 | -0.408 ± 0.13
CACUAGCAAUAUUACGAUCG | 0.531 ± 0.067 | 0.717 ± 0.071
GGCGAGCAAUAUUACGUUCG | -3.74 ± 0.27 | -1.59 ± 0.3
UCGUAGCAAUAUUACGUCUU | -2.7 ± 0.15 | -0.44 ± 0.14
CUACAGCAAUAUUACGGGUA | -3.25 ± 0.19 | -2.05 ± 0.12
GCUUAGCAAUAUUACGAUCU | -1.12 ± 0.12 | 0.155 ± 0.13
GUUGAGCAAUAUUACGAUUU | -1.2 ± 0.12 | -1.64 ± 0.16
GAUAAGCAAUAUUACGCUAG | -2.45 ± 0.15 | 0.0994 ± 0.13
CAAAAGCAAUAUUACGUAGU | -3.12 ± 0.12 | -2.76 ± 0.18
UCACAGCAAUAUUACGAACU | -3.39 ± 0.16 | -2.23 ± 0.15
CGUAAGCAAUAUUACGAUAC | – | -2.9 ± 0.47
GGGAAGCAAUAUUACGUGAC | -1.99 ± 0.18 | 0.336 ± 0.21
GGACAGCAAUAUUACGUCUG | -1.1 ± 0.057 | -0.31 ± 0.072
GUUUAGCAAUAUUACGGGUU | – | -2.92 ± 0.35
CUAUAGCAAUAUUACGAUGG | -3.44 ± 0.24 | -1.18 ± 0.14
GACCAGCAAUAUUACGCUCA | -0.152 ± 0.059 | -0.295 ± 0.079
UCAUAGCAAUAUUACGGUUU | -3.72 ± 0.28 | -1.92 ± 0.22
GCAGAGCAAUAUUACGCGAC | – | -2.27 ± 0.36
